Changes are numbered by the printed parent chain. Numbers in names are those of the source.
B1: anti-human OX40 IgG2 antibody Mut_14 (V234M/S267E/S298G/I332L) (antibody)
heavy: QVQLQESGPGLVKPSGTLSLTCAVSGGSISSSIWWSWVRQPPGKGLEWIGEIHHSGNTNCNPSLKSRVTISIDKSKNQFSLKLTSVTAADTAVYYCARAGTGTTLDYWGQGTLVTVSSASTKGPSVFPLAPCSRSTSESTAALGCLVKDYFPEPVTVSWNSGALTSGVHTFPAVLQSSGLYSLSSVVTVPSSNFGTQTYTCNVDHKPSNTKVDKTVERKCCVECPPCPAPPMAGPSVFLFPPKPKDTLMISRTPEVTCVVVDVEHEDPEVQFNWYVDGVEVHNAKTKPREEQFNGTFRVVSVLTVVHQDWLNGKEYKCKVSNKGLPAPLEKTISKTKGQPREPQVYTLPPSREEMTKNQVSLTCLVKGFYPSDIAVEWESNGQPENNYKTTPPMLDSDGSFFLYSKLTVDKSRWQQGNVFSCSVMHEALHNHYTQKSLSLSPGK
light: EIVLTQSPGTLSLSPGERATLSCRASQSVSGDYLAWYQQKLGQAPRLLIYGASIRATGIPDRFSGSGSGTDFTLTISKLEPEDFAVYYCQQYGSSPLTFGGGTKVEIKRTVAAPSVFIFPPSDEQLKSGTASVVCLLNNFYPREAKVQWKVDNALQSGNSQESVTEQDSKDSTYSLSSTLTLSKADYEKHKVYACEVTHQGLSSPVTKSFNRGEC
notes: Substitutions in Eu numbering; entries include an unstated signal peptide
B2: anti-human OX40 IgG2 antibody Mut_16 (S267E/S298G) (antibody, name in EU numbering)
heavy: B1 heavy with M232V, L329I
light: B1 light
notes: as for B1
B3: anti-human OX40 IgG2 antibody Mut_13 (V266L/S298L/L328W) (antibody, name in EU numbering)
heavy: B1 heavy with M232V, V263L, E264S, G295L, L325W, L329I
light: B1 light
notes: as for B1
B4: anti-human OX40 IgG2 antibody Mut_20 (V266L/S267E/H268S/E269A/P271C) (antibody, name in EU numbering)
heavy: B1 heavy with M232V, V263L, H265S, E266A, P268C, G295S, L329I
light: B1 light
notes: as for B1
B5: anti-human OX40 IgG2 antibody Mut_19 (V266L/S267E/H268S/E269V/P271C) (antibody, name in EU numbering)
heavy: B1 heavy with M232V, V263L, H265S, E266V, P268C, G295S, L329I
light: B1 light
notes: as for B1

Columns and labels:
[1] = target: T1, FcγRIIB (human, UniProt P31994 43-217, biotin-labeled); test: ELISA; relative affinity to FcγRIIB over that to FcγRIIA131R
T1 construct: extracellular domain; Bought protein; also called CD32b
T1 sequence (looked up): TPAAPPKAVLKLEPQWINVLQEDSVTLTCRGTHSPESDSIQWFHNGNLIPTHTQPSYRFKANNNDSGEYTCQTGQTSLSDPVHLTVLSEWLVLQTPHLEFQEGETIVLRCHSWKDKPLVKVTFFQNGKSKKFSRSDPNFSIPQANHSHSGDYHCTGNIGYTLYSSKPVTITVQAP
Experimental: One hundred μl (2 μg/mL) of antibody or mutant thereof were added to the enzyme-linked plate to be coated overnight, then the supernatant was discarded. The plate was blocked with PBS containing 1% BSA for 2 hours, and washed with PBST (PBS containing 0.05% Tween 20). Biotin-labeled FcγR extracellular domain protein (Beijing Sino Biological Co., Ltd) of appropriate concentration was added and incubated at room temperature for 1 hour, then the supernatant was discarded and the plate was washed with PBST. The Biotin-labeled protein was detected by incubating with Streptavidin-HRP (BD BioSciences) at room temperature for 1 hour. The supernatant was removed, and the color-developing solution was added for color development for 20-40 minutes to determine the absorbance of 650 nm (A650).
Anti-human OX40 antibodies containing these new Fc mutation combinations are expressed and the binding property of the mutant antibody to FcγR are analyzed by Enzyme-linked immunosorbent assay (ELISA).

[2] = target: T2, FcγRI (human, UniProt P12314 16-292, biotin-labeled); test: ELISA, coated antibody, biotin-FcγR;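 for Absorbance value: antibody coated at 2 µg/mL at 100 µL per well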
T2 construct: extracellular domain; Bought protein; also called CD64
T2 sequence (P12314 16-292): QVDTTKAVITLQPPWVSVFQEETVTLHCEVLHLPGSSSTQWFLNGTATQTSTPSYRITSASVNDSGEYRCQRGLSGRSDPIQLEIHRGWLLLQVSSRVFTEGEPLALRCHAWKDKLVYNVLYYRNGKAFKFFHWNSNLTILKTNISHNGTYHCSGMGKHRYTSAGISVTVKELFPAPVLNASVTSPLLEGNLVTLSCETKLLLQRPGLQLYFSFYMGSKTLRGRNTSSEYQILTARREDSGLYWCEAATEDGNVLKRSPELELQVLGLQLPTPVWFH

[3] = target: T3, FcγRIIIA^158V (human, UniProt P08637 17-208, biotin-labeled); test: ELISA, coated antibody, biotin-FcγR;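 for Absorbance value: antibody coated at 2 µg/mL at 100 µL per well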
T3 construct: extracellular domain; Bought protein; also called RIIIAV; CD16a 158V
T3 sequence (P08637 17-208 F176V): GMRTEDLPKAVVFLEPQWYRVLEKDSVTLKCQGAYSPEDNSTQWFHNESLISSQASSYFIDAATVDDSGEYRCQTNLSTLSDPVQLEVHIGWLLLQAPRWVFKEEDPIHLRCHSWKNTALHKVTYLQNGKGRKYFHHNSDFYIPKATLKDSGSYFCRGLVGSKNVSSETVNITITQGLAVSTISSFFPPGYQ

[4] = target: T4, FcγRIIA^131R (human, UniProt P12318 34-217, biotin-labeled); test: ELISA, coated antibody, biotin-FcγR;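 for Absorbance value: antibody coated at 2 µg/mL at 100 µL per well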
T4 construct: extracellular domain; Bought protein; also called RIIAR
T4 sequence (looked up): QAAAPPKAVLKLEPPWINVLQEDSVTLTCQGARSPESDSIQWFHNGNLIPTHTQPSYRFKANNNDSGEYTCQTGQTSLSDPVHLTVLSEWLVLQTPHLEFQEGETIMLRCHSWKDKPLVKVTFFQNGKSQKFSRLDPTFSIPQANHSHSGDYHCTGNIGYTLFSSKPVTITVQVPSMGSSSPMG

[5] = target: T5, FcγRIIIA^158F (human, UniProt P08637 17-208, biotin-labeled); test: ELISA, coated antibody, biotin-FcγR;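 for Absorbance value: antibody coated at 2 µg/mL at 100 µL per well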
T5 construct: extracellular domain; Bought protein; also called RIIIAF
T5 sequence (P08637 17-208): as the sequence (P08637 17-208 F176V) above, with V160F counted along it

[6] = target: T6, FcγRIIA^131H (human, UniProt P12318 34-217, biotin-labeled); test: ELISA, coated antibody, biotin-FcγR;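 for Absorbance value: antibody coated at 2 µg/mL at 100 µL per well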
T6 construct: extracellular domain; Bought protein; also called RIIAH
T6 sequence (looked up): T4 sequence (looked up) with R134H

[7] = target: T1, FcγRIIB; test: ELISA, coated antibody, biotin-FcγR;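 for Absorbance value: antibody coated at 2 µg/mL at 100 µL per well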

Row | Binder | RIIB/RIIAR [1] | Absorbance value [2] | Relative binding affinity RI/G1 [2] | Absorbance value [3] | Relative binding affinity RIIIAV/G1 [3] | Absorbance value [4] | Relative binding affinity RIIAR/G1 [4] | Absorbance value [5] | Relative binding affinity RIIIAF/G1 [5] | Absorbance value [6] | Relative binding affinity RIIAH/G1 [6] | Absorbance value [7] | Increased factor of RIIB binding compared with wild-type IgG2 [7] | Relative binding affinity RIIB/G1 [7]
1 | B1 | 0.76 ratio | 0.12 A650 | 0.04 ratio | 0.05 A650 | 0.06 ratio | 0.32 A650 | 1.22 ratio | 0.06 A650 | 0.31 ratio | 0.12 A650 | 0.21 ratio | 0.7 A650 | 9.36 fold | 0.93 ratio
2 | B2 | 0.75 ratio | 0.1 A650 | 0.04 ratio | 0.06 A650 | 0.06 ratio | 0.5 A650 | 1.92 ratio | 0.06 A650 | 0.32 ratio | 0.39 A650 | 0.68 ratio | 1.09 A650 | 14.5 fold | 1.44 ratio
3 | B3 | 0.96 ratio | 0.18 A650 | 0.07 ratio | 0.08 A650 | 0.09 ratio | 0.26 A650 | 1.01 ratio | 0.07 A650 | 0.37 ratio | 0.33 A650 | 0.58 ratio | 0.73 A650 | 9.75 fold | 0.97 ratio
4 | B4 | 0.85 ratio | 0.12 A650 | 0.05 ratio | 0.05 A650 | 0.06 ratio | 0.46 A650 | 1.76 ratio | 0.06 A650 | 0.31 ratio | 0.48 A650 | 0.85 ratio | 1.13 A650 | 15.1 fold | 1.5 ratio
5 | B5 | 1 ratio | 0.11 A650 | 0.04 ratio | 0.07 A650 | 0.07 ratio | 0.28 A650 | 1.08 ratio | 0.07 A650 | 0.38 ratio | 0.33 A650 | 0.58 ratio | 0.82 A650 | 11 fold | 1.09 ratio

From patent publication US20230220042A1 (SHANGHAI JIAO TONG UNIVERSITY SCHOOL OF MEDICINE, published 2023)
